Tests used:
[1] = target: ROBO1 (Homo sapiens, UniProt Q9Y6N7); test: Isothermal Titration calorimetry (ITC) of B5209B mouse-scFv-mcSA414 and ROBO1; format: binding
Description: By Isothermal Titration calorimetry (ITC), the interaction of B5209B mouse-scFv-mcSA414 and ROBO1 was subjected to […] analysis.

[2] = Differential Scanning calorimetry (DSC) thermal stability; format: physicochemical; conditions: PBS
Description: By Differential Scanning calorimetry (DSC), the thermal stability of B5209B mouse-scFv-mcSA414 was evaluated. PBS was used as a solvent. […] Accordingly, the temperature necessary for denaturation of the scFV domain of B5209B mouse-scFv-SA is assumed to be Tm 51.4° C., and the temperature necessary for the complete denaturation of a single molecule thereof is assumed to be Tm 108° C. Moreover, since the temperature for dissociation of a streptavidin domain tetramer was not detected, it is assumed that the streptavidin was completely denatured without the dissociation of a tetramer.

[3] = Thermal shift assay of streptavidin proteins; format: physicochemical; conditions: at 100° C., 10 μM protein, 1×PBS, guanidine-HCl 0 to 2 M, SYPRO Orange
Description: The following 5 types of proteins, a native streptavidin, mcSA040, mcSA072, mcSA314 and mcSA414, which had been purified in accordance with Example 2, were subjected to a thermal shift assay (Vedadi, (2006), Proc Natl Sci USA., 103(43), 15835-15840). Each sample was prepared in a real-time PCR tube (PCR Tube Strip, Flat Cap Strip; manufactured by BIO-RAD), so that the samples could have the following final concentrations. That is, SYPRO Orange was 5000-fold diluted, the concentration of each protein was set at 10 μM, and the buffer was set at 1×PBS. Moreover, for the purpose of accelerating the heat denaturation of each protein, the concentration of a guanidine-HCl solution was set at 0 M, 0.5 M, 1M and 2 M as a final concentration. The reaction volume was set at 20 μl. The CFX96 Real-Time PCR detection system (manufactured by BIO-RAD) was used as a measurement device. As a program mode of the CFX96 Real-Time PCR detection system, a program mode for use in FRET detection was used. The reaction and detection were carried out by a program for increasing the temperature by 0.5° C. every 10 seconds.

[4] = Kinetics analysis of interaction between streptavidin protein and biotin using Biacore biosensor; format: binding; conditions: for Association rate constant ka / Dissociation rate constant kd: Biacore 3000, biotinylated mouse antibody captured, 1:1 binding model; for Kd: Biacore 3000, obtained from kd/ka, read-out: Dissociation constant Kd
Description: As a ligand (a substance to be attached to a sensor chip) used for a Biacore (registered trademark) biosensor, an anti-mouse IgG antibody (manufactured by GE Healthcare Biosciences) was used. On the other hand, as analytes (substances to be supplied to the flow channel system), a biotinylated mouse antibody and various types of mutant streptavidins were prepared, and intermolecular interaction was then analyzed using Biacore (registered trademark) 3000 (a biosensor based on the principle of surface plasmon resonance; manufactured by GE Healthcare Biosciences). The anti-mouse IgG antibody was immobilized on all of the flow cells of a CM5 sensor chip according to an amine coupling method. The amount of the antibody immobilized on each flow cell was 8000 RU. Subsequently, as references, non-biotinylated mouse antibodies were captured onto Flow Cells 1 and 3, and biotinylated mouse antibodies were captured onto Flow Cells 2 and 4. Various types of streptavidins were loaded in a running buffer (HBS-EP; manufactured by GE Healthcare Biosciences) on Flow Cells 1 and 2, or 3 and 4, at a flow rate of 20 μl/min for 2 minutes. Thereafter, dissociation of each sample was monitored for 7 minutes. Thereafter, a reproduction operation was carried out using a 10 mM glycine-HCl buffer (pH 1.7) (manufactured by GE Healthcare Biosciences), and repeat measurement was then carried out. Using the analysis software BIAevaluation ver. 4.1, a reaction kinetics analysis was performed on a 1:1 binding model based on the obtained sensorgram, so as to calculate an association rate constant (ka) and a dissociation rate constant (kd). A dissociation constant (Kd) was obtained from kd/ka.
The results of the kinetics analysis of the intermolecular interaction of a recombinant streptavidin and a biotin, which was carried out using Biacore (registered trademark) 3000 (a biosensor based on the principle of surface plasmon resonance; manufactured by GE Healthcare Biosciences), are as shown in Table 2.

Sequence of ROBO1 (Q9Y6N7 26-1651, species assumed): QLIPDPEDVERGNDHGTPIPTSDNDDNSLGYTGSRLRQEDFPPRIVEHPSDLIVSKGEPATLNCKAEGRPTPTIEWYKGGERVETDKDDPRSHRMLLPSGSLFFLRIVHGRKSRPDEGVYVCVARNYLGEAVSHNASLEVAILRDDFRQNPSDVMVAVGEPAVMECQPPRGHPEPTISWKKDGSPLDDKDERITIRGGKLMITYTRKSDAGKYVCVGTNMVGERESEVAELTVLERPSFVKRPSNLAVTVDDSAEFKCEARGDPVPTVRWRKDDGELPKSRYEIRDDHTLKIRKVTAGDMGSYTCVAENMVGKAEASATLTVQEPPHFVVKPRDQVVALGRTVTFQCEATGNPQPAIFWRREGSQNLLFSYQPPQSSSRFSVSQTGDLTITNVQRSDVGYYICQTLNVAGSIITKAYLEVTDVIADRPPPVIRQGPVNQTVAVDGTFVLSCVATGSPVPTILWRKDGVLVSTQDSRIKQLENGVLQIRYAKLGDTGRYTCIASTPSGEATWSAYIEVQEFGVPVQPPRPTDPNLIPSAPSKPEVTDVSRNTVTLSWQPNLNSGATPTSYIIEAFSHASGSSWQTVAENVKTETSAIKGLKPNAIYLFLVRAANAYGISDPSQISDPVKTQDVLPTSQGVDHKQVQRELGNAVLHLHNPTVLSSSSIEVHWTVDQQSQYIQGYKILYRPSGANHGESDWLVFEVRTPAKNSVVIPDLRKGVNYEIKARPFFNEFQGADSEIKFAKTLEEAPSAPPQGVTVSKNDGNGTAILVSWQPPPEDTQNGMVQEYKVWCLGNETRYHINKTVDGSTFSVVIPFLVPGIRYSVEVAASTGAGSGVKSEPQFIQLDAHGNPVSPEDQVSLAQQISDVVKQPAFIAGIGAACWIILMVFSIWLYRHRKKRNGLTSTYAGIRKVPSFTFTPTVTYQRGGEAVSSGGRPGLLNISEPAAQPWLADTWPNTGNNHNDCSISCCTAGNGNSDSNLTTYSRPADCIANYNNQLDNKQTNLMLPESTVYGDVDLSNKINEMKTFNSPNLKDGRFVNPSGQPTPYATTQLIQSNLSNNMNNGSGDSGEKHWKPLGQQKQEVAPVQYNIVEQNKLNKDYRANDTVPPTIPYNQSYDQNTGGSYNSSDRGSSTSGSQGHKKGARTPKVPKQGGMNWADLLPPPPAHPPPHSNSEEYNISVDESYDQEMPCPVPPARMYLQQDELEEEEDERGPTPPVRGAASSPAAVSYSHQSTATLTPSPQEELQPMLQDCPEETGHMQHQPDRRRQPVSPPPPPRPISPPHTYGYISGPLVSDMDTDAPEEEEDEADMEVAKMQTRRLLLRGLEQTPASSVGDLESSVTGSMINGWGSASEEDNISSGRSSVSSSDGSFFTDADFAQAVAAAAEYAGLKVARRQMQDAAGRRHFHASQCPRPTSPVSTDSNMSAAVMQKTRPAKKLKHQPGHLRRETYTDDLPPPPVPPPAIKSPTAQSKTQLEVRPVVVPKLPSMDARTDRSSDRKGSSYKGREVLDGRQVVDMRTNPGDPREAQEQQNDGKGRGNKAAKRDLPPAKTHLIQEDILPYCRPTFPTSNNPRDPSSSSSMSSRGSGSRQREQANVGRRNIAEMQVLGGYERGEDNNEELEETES

Dissociation rate constant kd [4] | Kd [4] [nM] | Molecule | Association rate constant ka [4] | further results
– | – | B5209B mouse-scFv-mcSA414: fusion of anti-ROBO1 monoclonal antibody B5209B mouse scFv and mcSA414, SEQ ID NO: 16 (protein, listed as Mus sp.) MAEVQLVESGGGVVQPGGSLKLSCAASGFTFSTYDMSWVRQTPDKRLELVATINSNGGSTYYPDSVKGRFTSSRDNAKNILYLQMSSLKSEDTAMYYCAREALLRPPYYALDYWGQGTSVTVSSAGGGGSGGGGSGGGGSDILDIQMTQSPASLSASVGETVTITCGASENIYGALTWYQRKQGKSPQLLIYGAINLADDKSSRFSGSGSGRQYSLKISSLHPDDVATYYCQNVLSTPFTFGSGTKLEIKAAGSSGSGSAAEAGITGTWSNQLGSTFIVTAGADGALTGTYESAVGNAESRYVLTGRYDSAPATDGSGTALGWTVAWKNNSKNAHSATTWSGQYVGGADAKINTQWLLTSGTTQANAWKSTLVGHDTFTKVKPSAASGARHHHHHH | – | binding ratio: molecules of ROBO1 bound to a tetramer [1]: 2; change in ΔH compared with scFV [1]: no significant change; reduction in affinity compared with scFV [1]: approximately one order of magnitude; ΔS value compared with scFV [1]: approximately 1/40; amount of enthalpy change (ΔH) ([1]; 25° C., PBS): -16.1 kJ/mol; amount of entropy change (ΔS) ([1]; 25° C., PBS): −22 J/mol·K; temperature for dissociation of a streptavidin domain tetramer [2]: not detected; temperature necessary for denaturation of the scFV domain (Tm) [2]: 51.4 °C; temperature necessary for the complete denaturation of a single molecule (Tm) [2]: 108 °C
– | – | mcSA040: mutant core streptavidin with Y83S, R84K, E116Q (protein) core streptavidin subunit: AEAGITGTWYNQLGSTFIVTAGADGALTGTYESAVGNAESRYVLTGRYDSAPATDGSGTALGWTVAWKNNSKNAHSATTWSGQYVGGAEARINTQWLLTSGTTQANAWKSTLVGHDTFTKVKPSAAS | – | thermal stability compared with native streptavidin [3]: thermal stability equivalent to that of the native streptavidin
1.01 × 10^−4 S^−1 | 0.481 | mcSA224: mutant core streptavidin with Y22T, Y83A, R84K, E101D, R103K, E116Q (protein) core streptavidin subunit: AEAGITGTWTNQLGSTFIVTAGADGALTGTYESAVGNAESRYVLTGRYDSAPATDGSGTALGWTVAWKNNAKNAHSATTWSGQYVGGADAKINTQWLLTSGTTQANAWKSTLVGHDTFTKVKPSAAS | 2.11 × 10^5 M^−1 S^−1 | –
1.12 × 10^−4 S^−1 | 0.845 | mcSA424: mutant core streptavidin with Y22T, Y83S, R84K, E101D, R103K, E116Q (protein) core streptavidin subunit: AEAGITGTWTNQLGSTFIVTAGADGALTGTYESAVGNAESRYVLTGRYDSAPATDGSGTALGWTVAWKNNSKNAHSATTWSGQYVGGADAKINTQWLLTSGTTQANAWKSTLVGHDTFTKVKPSAAS | 1.32 × 10^5 M^−1 S^−1 | –
1.58 × 10^−4 S^−1 | 0.264 | mcSA314: mutant core streptavidin with Y22S, Y83S, R84K, E101D, R103K, E116N (protein) core streptavidin subunit: AEAGITGTWSNQLGSTFIVTAGADGALTGTYESAVGNAESRYVLTGRYDSAPATDGSGTALGWTVAWKNNSKNAHSATTWSGQYVGGADAKINTQWLLTSGTTNANAWKSTLVGHDTFTKVKPSAAS | 5.99 × 10^5 M^−1 S^−1 | thermal stability compared with native streptavidin [3]: thermal stability equivalent to that of the native streptavidin
1.60 × 10^−4 S^−1 | 0.427 | mcSA020: mutant core streptavidin with Y83A, R84K, E116Q (protein) core streptavidin subunit: AEAGITGTWYNQLGSTFIVTAGADGALTGTYESAVGNAESRYVLTGRYDSAPATDGSGTALGWTVAWKNNAKNAHSATTWSGQYVGGAEARINTQWLLTSGTTQANAWKSTLVGHDTFTKVKPSAAS | – | –
5.38 × 10^−5 S^−1 | 0.176 | mcSA124: mutant core streptavidin with Y22T, Y83A, R84K, E101D, R103K, E116N (protein) core streptavidin subunit: AEAGITGTWTNQLGSTFIVTAGADGALTGTYESAVGNAESRYVLTGRYDSAPATDGSGTALGWTVAWKNNAKNAHSATTWSGQYVGGADAKINTQWLLTSGTTNANAWKSTLVGHDTFTKVKPSAAS | 3.06 × 10^5 M^−1 S^−1 | –
8.96 × 10^−5 S^−1 | 0.225 | mcSA010: mutant core streptavidin with Y83A, R84K, E116N (protein) core streptavidin subunit: AEAGITGTWYNQLGSTFIVTAGADGALTGTYESAVGNAESRYVLTGRYDSAPATDGSGTALGWTVAWKNNAKNAHSATTWSGQYVGGAEARINTQWLLTSGTTNANAWKSTLVGHDTFTKVKPSAAS | – | –
1.21 × 10^−4 S^−1 | 0.459 | mcSA214: mutant core streptavidin with Y22S, Y83A, R84K, E101D, R103K, E116Q (protein) core streptavidin subunit: AEAGITGTWSNQLGSTFIVTAGADGALTGTYESAVGNAESRYVLTGRYDSAPATDGSGTALGWTVAWKNNAKNAHSATTWSGQYVGGADAKINTQWLLTSGTTQANAWKSTLVGHDTFTKVKPSAAS | 2.64 × 10^5 M^−1 S^−1 | –
5.18 × 10^−5 S^−1 | 0.243 | mcSA414: mutant core streptavidin with Y22S, Y83S, R84K, E101D, R103K, E116Q (protein) core streptavidin subunit: AEAGITGTWSNQLGSTFIVTAGADGALTGTYESAVGNAESRYVLTGRYDSAPATDGSGTALGWTVAWKNNSKNAHSATTWSGQYVGGADAKINTQWLLTSGTTQANAWKSTLVGHDTFTKVKPSAAS | 2.31 × 10^5 M^−1 S^−1 | thermal stability compared with native streptavidin [3]: thermal stability equivalent to that of the native streptavidin
7.18 × 10^−5 S^−1 | 0.22 | mcSA324: mutant core streptavidin with Y22T, Y83S, R84K, E101D, R103K, E116N (protein) core streptavidin subunit: AEAGITGTWTNQLGSTFIVTAGADGALTGTYESAVGNAESRYVLTGRYDSAPATDGSGTALGWTVAWKNNSKNAHSATTWSGQYVGGADAKINTQWLLTSGTTNANAWKSTLVGHDTFTKVKPSAAS | 3.26 × 10^5 M^−1 S^−1 | –
1.55 × 10^−4 S^−1 | 0.399 | mcSA030: mutant core streptavidin with Y83S, R84K, E116N (protein) core streptavidin subunit: AEAGITGTWYNQLGSTFIVTAGADGALTGTYESAVGNAESRYVLTGRYDSAPATDGSGTALGWTVAWKNNSKNAHSATTWSGQYVGGAEARINTQWLLTSGTTNANAWKSTLVGHDTFTKVKPSAAS | – | –
9.92 × 10^−5 S^−1 | 0.274 | mcSA114: mutant core streptavidin with Y22S, Y83A, R84K, E101D, R103K, E116N (protein) core streptavidin subunit: AEAGITGTWSNQLGSTFIVTAGADGALTGTYESAVGNAESRYVLTGRYDSAPATDGSGTALGWTVAWKNNAKNAHSATTWSGQYVGGADAKINTQWLLTSGTTNANAWKSTLVGHDTFTKVKPSAAS | 3.61 × 10^5 M^−1 S^−1 | –
